According to patent publication US8815237:

Tests used:
Assay in all cases: SPR (Biacore T100), steady state; antibody immobilized, soluble receptor injected
[1] = target: soluble human FcγRIa (R&D Systems) (human) (UniProt P12314)
[2] = target: soluble human FcγRIIA^131H (human) (UniProt P12318)
[3] = target: soluble human FcγRIIA^131R (human) (UniProt P12318)

UniProt P12314, sequence (P12314 16-288 limits assumed): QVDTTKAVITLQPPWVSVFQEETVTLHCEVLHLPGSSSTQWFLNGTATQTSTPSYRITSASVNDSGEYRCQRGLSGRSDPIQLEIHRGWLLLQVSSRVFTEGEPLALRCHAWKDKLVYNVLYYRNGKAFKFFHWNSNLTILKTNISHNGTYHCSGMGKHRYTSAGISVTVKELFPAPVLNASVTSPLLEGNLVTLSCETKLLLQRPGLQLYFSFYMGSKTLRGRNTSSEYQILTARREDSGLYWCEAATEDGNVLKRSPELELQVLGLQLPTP

fold weakening of binding against wild type [1]: 10 fold
Kd [2]: 7 µM
Kd [3]: 1.7 µM
fold stronger binding than wild-type Fc [3]: 3 fold
Substance: 4m5.3 hIgG1 S298G/T299A (antibody)
